T1: Recombinant human MMR (R&D systems) (human, UniProt P22897 19-1383)
T1 construct: Antigen of the PE-ELISA and the SPR; also called hMMR; recombinant hMMR
T1 sequence: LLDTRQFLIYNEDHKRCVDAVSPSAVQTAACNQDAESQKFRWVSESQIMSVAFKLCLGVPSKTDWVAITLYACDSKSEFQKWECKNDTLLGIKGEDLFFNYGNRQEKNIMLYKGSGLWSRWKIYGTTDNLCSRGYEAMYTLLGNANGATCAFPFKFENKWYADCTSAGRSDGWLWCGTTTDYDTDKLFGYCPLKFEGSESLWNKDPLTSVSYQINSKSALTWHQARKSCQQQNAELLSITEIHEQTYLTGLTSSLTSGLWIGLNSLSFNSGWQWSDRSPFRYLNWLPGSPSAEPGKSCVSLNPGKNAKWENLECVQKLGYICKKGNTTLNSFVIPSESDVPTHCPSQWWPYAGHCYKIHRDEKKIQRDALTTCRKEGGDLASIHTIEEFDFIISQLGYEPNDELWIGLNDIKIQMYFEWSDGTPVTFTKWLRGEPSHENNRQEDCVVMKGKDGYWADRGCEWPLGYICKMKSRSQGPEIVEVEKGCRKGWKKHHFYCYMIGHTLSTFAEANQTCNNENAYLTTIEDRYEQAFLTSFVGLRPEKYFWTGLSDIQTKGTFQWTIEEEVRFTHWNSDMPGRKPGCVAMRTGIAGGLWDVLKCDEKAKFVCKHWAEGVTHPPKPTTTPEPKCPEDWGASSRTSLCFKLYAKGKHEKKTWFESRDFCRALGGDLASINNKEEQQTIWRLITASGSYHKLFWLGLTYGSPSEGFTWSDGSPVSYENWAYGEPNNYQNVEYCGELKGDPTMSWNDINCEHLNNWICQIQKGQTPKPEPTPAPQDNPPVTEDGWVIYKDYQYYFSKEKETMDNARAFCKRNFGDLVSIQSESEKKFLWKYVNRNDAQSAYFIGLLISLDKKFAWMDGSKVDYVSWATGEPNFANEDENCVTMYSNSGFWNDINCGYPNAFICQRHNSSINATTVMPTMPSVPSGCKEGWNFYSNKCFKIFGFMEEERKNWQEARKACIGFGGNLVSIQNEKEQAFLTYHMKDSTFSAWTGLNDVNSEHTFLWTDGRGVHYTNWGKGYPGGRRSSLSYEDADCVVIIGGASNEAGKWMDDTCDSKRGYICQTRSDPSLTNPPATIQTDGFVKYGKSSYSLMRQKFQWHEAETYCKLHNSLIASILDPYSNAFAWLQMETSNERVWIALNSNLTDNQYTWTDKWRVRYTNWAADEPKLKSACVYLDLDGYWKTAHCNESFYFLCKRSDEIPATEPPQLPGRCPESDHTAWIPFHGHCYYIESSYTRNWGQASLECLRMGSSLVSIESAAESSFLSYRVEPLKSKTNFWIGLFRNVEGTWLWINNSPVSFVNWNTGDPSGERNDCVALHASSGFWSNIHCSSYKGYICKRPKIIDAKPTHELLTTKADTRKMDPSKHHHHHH

T2: Recombinant mouse MMR (R&D systems) (mouse, UniProt Q61830 20-1388)
T2 construct: Antigen of the PE-ELISA and the SPR; also called mMMR; recombinant mMMR
T2 sequence: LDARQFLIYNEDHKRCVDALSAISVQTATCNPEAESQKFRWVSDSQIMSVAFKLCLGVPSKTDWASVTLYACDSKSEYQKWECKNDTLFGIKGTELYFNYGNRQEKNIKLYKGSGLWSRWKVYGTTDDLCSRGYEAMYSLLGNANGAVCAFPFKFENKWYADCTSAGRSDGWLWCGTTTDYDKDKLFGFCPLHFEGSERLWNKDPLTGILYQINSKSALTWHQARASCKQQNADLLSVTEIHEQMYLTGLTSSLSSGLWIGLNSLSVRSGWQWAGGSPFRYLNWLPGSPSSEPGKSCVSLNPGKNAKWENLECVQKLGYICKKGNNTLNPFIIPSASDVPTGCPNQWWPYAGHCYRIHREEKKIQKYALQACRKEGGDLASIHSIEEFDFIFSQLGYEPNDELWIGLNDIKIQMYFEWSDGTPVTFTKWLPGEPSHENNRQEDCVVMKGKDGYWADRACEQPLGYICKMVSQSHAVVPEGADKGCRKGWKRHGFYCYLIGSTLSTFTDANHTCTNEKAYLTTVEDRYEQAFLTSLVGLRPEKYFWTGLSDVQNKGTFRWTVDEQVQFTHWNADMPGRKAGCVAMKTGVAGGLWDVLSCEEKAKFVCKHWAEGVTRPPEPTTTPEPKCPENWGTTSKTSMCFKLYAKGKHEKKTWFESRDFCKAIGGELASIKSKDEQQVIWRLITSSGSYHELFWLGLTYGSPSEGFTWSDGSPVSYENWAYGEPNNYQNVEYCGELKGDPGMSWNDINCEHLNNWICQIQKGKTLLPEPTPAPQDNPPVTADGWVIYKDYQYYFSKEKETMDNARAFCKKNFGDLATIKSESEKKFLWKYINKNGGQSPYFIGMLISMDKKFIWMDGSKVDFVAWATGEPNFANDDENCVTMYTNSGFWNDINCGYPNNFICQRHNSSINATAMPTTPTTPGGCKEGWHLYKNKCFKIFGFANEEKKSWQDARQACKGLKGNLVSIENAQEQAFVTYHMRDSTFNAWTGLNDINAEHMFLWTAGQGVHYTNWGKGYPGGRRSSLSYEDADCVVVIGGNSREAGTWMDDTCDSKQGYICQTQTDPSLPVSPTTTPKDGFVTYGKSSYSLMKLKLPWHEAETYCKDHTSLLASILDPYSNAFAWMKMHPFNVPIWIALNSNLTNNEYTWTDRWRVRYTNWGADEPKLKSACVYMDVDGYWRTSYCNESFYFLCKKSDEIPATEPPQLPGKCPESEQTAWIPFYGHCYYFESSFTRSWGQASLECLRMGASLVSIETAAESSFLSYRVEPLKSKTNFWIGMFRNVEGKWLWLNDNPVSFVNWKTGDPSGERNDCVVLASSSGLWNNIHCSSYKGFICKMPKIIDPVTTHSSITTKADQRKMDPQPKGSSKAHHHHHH


Key:
[1] = target: T1, Recombinant human MMR (R&D systems); assay: SPR, BIAcore T100; human MMR on CM5 chip, sdAb as analyte
Experimental: (§1) Affinity analysis was performed using a BIAcore™ T100 (GE Healthcare) with HEPES-buffered saline running buffer (10 mM HEPES with 0.15 M NaCl, 3.4 mM EDTA and 0.005% surfactant P20 at pH 7.4). MRR was immobilized on a CM5 chip in acetate buffer 50 mM (pH 5.0), resulting in 2100 RU MMR coated on the chip. A second channel on the same chip was activated/deactivated in a similar way and served as a negative control. The MMR sdAbs were used as analytes in eleven different concentrations, ranging from 1 to 2000 nM, at a flow rate of […]. Glycine-HCl 50 mM (pH 2.0) was used for elution. The kinetic and equilibrium parameters (kd, ka and KD) values were calculated from the combined sensogram of all concentrations using BIAcore™ T100 evaluation software 2.02 (GE Healthcare).
(§2) The binding characteristics and affinity of selected Nbs towards the recombinant hMMR and recombinant mMMR antigen was examined in further detail using surface plasmon resonance. A combined sensogram was recorded for each Nb (example for NbhmMMRm3.49 in FIG. 5) and the kinetic and equilibrium parameters (kd, ka and KD) values were calculated (Table 4 and Table 5). Most but not all results on binding to mouse or human rMMR obtained via this SPR analysis are in agreement with the results obtained by PE-ELISA.

[2] = target: T2, Recombinant mouse MMR (R&D systems); assay: SPR, BIAcore T100; mouse MMR on CM5 chip, sdAb as analyte
Experimental: as §1, §2

Kd [1] [nM] | koff [1] [s⁻¹] | kon [1] [M⁻¹ s⁻¹] | Kd [2] [nM] | koff [2] [s⁻¹] | kon [2] [M⁻¹ s⁻¹] | Binder | binding result [2]
38 | 0.0019 | 49000 | 130 | 0.004 | 30000 | NbhmMMRm22.84 (VHH, Produced from pMECS with C-terminal HA and 6xHis tag) VHH: QVQLQESGGGLVQPGGSLRLSCAASGRTFSNYVNYAMGWFRQFPGKEREFVASISWSSVTTYYADSVKGRFTISRDNAKNTVYLQMNSLKPEDTAVYYCAAHLAQYSDYAYRDPHQFGAWGQGTQVTVSS | –
5.6 | 0.0011 | 190000 | – | – | – | NbhmMMRm6.71 (VHH, Produced from pMECS with C-terminal HA and 6xHis tag) VHH: QVQLQESGGGLVQAGGSLRLSCAASGGTFDDSVIGWFRQAPGKEREGVSCISSNDGTTHYASPVKGRFTISSDNAKNTVYLQMNSLKPEDTAVYYCAAETPSIGSPCTSASYDYWGQGTQVTVSS | –
– | – | – | – | – | – | NbhMMRm23.30 (VHH, Produced from pMECS with C-terminal HA and 6xHis tag) VHH: QVQLQESGGGLVQAGDSLSISCAASGDTFNHYSWGWFRQAPGKAREFVAAISWNGGSKYADSVKGRFAISRDIAKNTVSLQMNSLEPEDTAVYYCAADRRPYNDWWDDWSWWVYWGQGTQVTVSS | no binding (tested: analyte 1 to 2000 nM)
3.3 | 0.00066 | 200000 | 25 | 0.0033 | 130000 | NbhMMRm5.38 (VHH, Produced from pMECS with C-terminal HA and 6xHis tag; also called NbhmMMRm5.38; Nb5.38) VHH: QVQLQESGGGLVQAGGSLRLSCAASGFTDDDYDIGWFRQAPGKEREGVSCISSSDGSTYYADSVKGRFTISSDNAKNTVYLQMNSLKPEDTAVYYCAADFFRWDSGSYYVRGCRHATYDYWGQGTQVTVSS | –
3.6 | 0.0012 | 340000 | – | – | – | NbhmMMRm21.22 (VHH, Produced from pMECS with C-terminal HA and 6xHis tag; also called NbhMMRm21.22) VHH: QVQLQESGGGLVQAGGSLRLSCAASGRTFSSAAMGWFRQAPGKEREPVALINLDDGETYYADIAKGRFTLSKDNAKNSVYLQMNSLKPEDTAVYYCAVRGRFDDNYEYWGQGTQVTVSS | –
3.4 | 0.00074 | 220000 | 19 | 0.004 | 210000 | NbhMMRm3.1 (VHH, Produced from pMECS with C-terminal HA and 6xHis tag; also called NbhmMMRm3.1) VHH: QVQLQESGGGLVQPGGSLRLSCAASGFTLDYYAIGWFRQAPGKEREGISCISYKGGSTTYADSVKGRFTISKDNAKNTAYLQMNNLKPEDTGIYYCAAGFVCYNYDYWGPGTQVTVSS | –
1.8 | 0.0008 | 440000 | 12 | 0.0036 | 290000 | NbhmMMRm3.49 (VHH, Produced from pMECS with C-terminal HA and 6xHis tag; also called NbhMMRm3.49) VHH: QVQLQESGGGLVQPGGSLRLSCAASGFSLDYYAIGWFRQAPGKEREGISCISYKGGSTTYADSVKGRFTISKDNAKNTAYLQMNSLKPEDTGIYSCAAGFVCYNYDYWGQGTQVTVSS | –
13 | 0.0073 | 580000 | 1.9 | 0.0013 | 690000 | NbhmMMRm26.70 (VHH, Produced from pMECS with C-terminal HA and 6xHis tag) VHH: QVQLQESGGGLVQPGGSLRLSCTASGFPFSSAPMSWVRQAPGKELEWVSYIGYTGTITDYANSVKGRFTISRDNAKNRLYLQMNSLKPEDTAVYFCAQGYARLIADSDLVRGQGTQVTVSS | –
270 | 0.0059 | 22000 | 44 | 0.0013 | 29000 | NbhMMRm15.43 (VHH, Produced from pMECS with C-terminal HA and 6xHis tag) VHH: QVQLQESGGTLVQPGGSLRLSCAASGSTFSINNMGWYRQAPGKQRELVAGITGGNTHYADSVKGRFTISRDNAKNTMYLQMNGLKPEDTAVYYCNANWGAYWGQGTQVTVSS | –
290 | 0.0061 | 21000 | 44 | 0.0013 | 29000 | NbhmMMRm15.49 (VHH, Produced from pMECS with C-terminal HA and 6xHis tag) VHH: QVQLQESGGGLVQAGGSLRLSCAASGSTFSINNMGWYRQAPGKQRELVAGITGGNTHYADSVKGRFTISRDNAKNTMYLQMNSLKPEDTAVYYCNANWGAYWGQGTQVTVSS | –
2.7 | 0.00069 | 260000 | 74 | 0.0021 | 28000 | NbhmMMRm24.31 (VHH, Produced from pMECS with C-terminal HA and 6xHis tag) VHH: QVQLQESGGGLVQPGGSLRLSCTATGFTLKNHHIGWLRQAPGKEREGVASINSSGGSTNYADSVQGRFTISRDNAKNTVFLQMNSLKSEDTAVYYCARLRRYYGLNLDPGSYDYWGQGTQVTVSS | –
19 | 0.0012 | 62000 | – | – | – | NbhmMMRm17.72 (VHH, Produced from pMECS with C-terminal HA and 6xHis tag) VHH: QVQLQESGGGLVQPGGSLRLSCAASGSIVSINAMGWYRQAPGKQRELVALVTGSGRTNLADSVKGRFTISRDNAKNTVYLQMNSLKPEDTAVYYCNVLVIGPLEGYDYWGQGTQVTVSS | –
